Test results as given in paper PMC6957250 (Experimental and molecular pathology, 2016).
Where two headings read alike, the source gives them in different places. One block for each binder: values may come before it.

Tests used:
Test in all cases: ELISA
[1] = molecular target: recombinant CD64A ectodomain (Homo sapiens (assumed), UniProt P12314)
[2] = molecular target: recombinant CD16B ectodomain (Homo sapiens, UniProt O75015)
[3] = molecular target: recombinant CD32A ectodomain (Homo sapiens (assumed), UniProt P12318)
recombinant CD32A ectodomain, sequence (P12318 34-217): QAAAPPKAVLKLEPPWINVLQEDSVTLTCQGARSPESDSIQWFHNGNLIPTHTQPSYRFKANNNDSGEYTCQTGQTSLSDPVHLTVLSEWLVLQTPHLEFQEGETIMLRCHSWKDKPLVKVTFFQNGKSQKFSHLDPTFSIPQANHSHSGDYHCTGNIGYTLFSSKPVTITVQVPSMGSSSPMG

[4] = molecular target: recombinant CD32B ectodomain (Homo sapiens (assumed), UniProt P31994)
recombinant CD32B ectodomain, sequence (P31994 43-217): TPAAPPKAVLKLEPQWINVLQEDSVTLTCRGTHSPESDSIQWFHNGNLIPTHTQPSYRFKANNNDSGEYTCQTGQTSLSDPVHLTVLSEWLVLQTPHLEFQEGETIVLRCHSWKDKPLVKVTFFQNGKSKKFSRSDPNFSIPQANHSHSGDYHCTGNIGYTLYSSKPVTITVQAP

[5] = molecular target: T1, recombinant CD16A-mFc (CD16A-158V extracellular domain fused to monomeric Fc) (Homo sapiens, allotype 158V, UniProt P08637, strain)
T1 sequence (P08637 17-208, change not shown): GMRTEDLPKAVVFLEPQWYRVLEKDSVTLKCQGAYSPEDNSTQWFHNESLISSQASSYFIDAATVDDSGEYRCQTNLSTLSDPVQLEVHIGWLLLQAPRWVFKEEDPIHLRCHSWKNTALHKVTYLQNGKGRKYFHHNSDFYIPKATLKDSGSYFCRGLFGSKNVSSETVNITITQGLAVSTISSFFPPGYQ

[6] = molecular target: CD16A-158F-mFc (CD16A carrying the 158F isoform, monomeric Fc fusion) (Homo sapiens, allotype 158F, UniProt P08637)
CD16A-158F-mFc (CD16A carrying the 158F isoform, monomeric Fc fusion), sequence (P08637 17-208): as the sequence (P08637 17-208, change not shown) above

[7] = molecular target: T1, recombinant CD16A-mFc (CD16A-158V …); remark: listed apart in the source

recombinant CD16B ectodomain, sequence (O75015 whole entry, looked up, the tested form may be a part): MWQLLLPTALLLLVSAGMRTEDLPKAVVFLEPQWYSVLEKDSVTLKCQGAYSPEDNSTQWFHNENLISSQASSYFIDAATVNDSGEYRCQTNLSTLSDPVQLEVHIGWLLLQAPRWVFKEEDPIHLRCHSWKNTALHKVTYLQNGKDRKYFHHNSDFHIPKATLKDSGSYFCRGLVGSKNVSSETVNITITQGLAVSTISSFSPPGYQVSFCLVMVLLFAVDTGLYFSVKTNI
recombinant CD64A ectodomain, sequence (P12314 16-292): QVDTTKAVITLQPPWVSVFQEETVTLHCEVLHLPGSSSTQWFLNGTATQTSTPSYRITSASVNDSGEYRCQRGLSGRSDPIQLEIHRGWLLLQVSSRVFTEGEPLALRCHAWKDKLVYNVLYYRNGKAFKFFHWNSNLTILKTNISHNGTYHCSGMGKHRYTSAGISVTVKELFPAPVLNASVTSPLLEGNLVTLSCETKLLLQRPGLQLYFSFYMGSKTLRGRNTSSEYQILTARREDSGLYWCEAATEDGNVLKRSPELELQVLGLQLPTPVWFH

binding result [1]: no binding | binding result [2]: no binding | binding result [3]: no binding | binding result [4]: no binding | EC50 [5]: 8 nM | binding result [6]: binds
B1: antibody domain E11 (VHH)
VH: EVQLVESGGGLVQPGGSLRLSCAASGFTFSSYGMSWVRQAPGKGLEWIGEVNHSGGSTNYNPSLKGSFVISRDNSKNTLYLQMNSLAEDTAVYYCARVGSFDFWGQGTLVTVSS

binding result [1]: no binding | binding result [2]: no binding | binding result [3]: no binding | binding result [4]: no binding | EC50 [5]: 4 nM | binding result [6]: binds | EC50 [7]: ~60 nM
B2: antibody domain D6 (VHH)
VH: EVQLVESGGGLVQPGGSLRLSCAASGFTFSNYGMSWVRQAPGKGLEWIGSIYYSGGSTNYNPSLKGSLVISRDNSKNTLYLQMNSLAEDTATYYCARESIDYWGQGTLVTVSS
